Data: patent US20040266694A1 (published 2004)

Assays:
[1] = biological target: T1, Recombinant human Flt-1/Fc chimera (R&D Systems) (human, UniProt P17948-2 27-687, limits assumed); test: receptor binding assay on immobilized Flt-1/Fc; reference: the peptide
[2] = biological target: T1, Recombinant human Flt-1/Fc chimera (R&D …); test: receptor binding assay on immobilized Flt-1/Fc, bound peroxidase activity
[3] = biological target: T1, Recombinant human Flt-1/Fc chimera (R&D …); test: competitive receptor binding assay on immobilized Flt-1/Fc; VEGF against 30 µM fluorescein labeled peptide (SEQ ID NO: 3)
Procedure: The cocktails were allowed to equilibrate for 4 hours at room temperature. After incubation, micrititer plates were washed with buffer B for 10 times. […] The results are represented as average of triplicate measurement ±SD.

[4] = biological target: T1, Recombinant human Flt-1/Fc chimera (R&D …); test: phage ELISA on Flt-1/Fc captured by anti-Fc, anti-M13-HRP

T1 sequence (P17948 other isoform, or with tags, fused parts or gaps mutant limits assumed): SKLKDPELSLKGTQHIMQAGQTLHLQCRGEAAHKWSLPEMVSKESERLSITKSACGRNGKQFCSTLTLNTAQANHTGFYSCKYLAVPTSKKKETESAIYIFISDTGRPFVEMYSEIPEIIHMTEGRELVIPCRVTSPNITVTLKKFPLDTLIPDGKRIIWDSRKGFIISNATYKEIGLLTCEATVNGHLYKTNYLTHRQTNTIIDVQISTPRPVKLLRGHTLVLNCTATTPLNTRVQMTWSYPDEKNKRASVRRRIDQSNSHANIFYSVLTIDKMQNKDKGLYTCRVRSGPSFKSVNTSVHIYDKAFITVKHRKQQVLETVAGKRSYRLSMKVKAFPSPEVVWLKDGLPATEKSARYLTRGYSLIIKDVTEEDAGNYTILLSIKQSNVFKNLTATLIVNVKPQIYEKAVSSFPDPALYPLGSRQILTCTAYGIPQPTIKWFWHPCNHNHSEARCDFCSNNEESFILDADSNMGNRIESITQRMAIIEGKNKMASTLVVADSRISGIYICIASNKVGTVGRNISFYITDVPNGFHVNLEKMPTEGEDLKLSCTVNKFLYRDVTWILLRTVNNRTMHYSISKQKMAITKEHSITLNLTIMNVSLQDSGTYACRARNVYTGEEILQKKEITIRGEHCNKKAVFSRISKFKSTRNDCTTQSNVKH

B1: Conjugate NO.: 1, peroxidase-peptide conjugate (other, horseradish)
chain: QLTPTFYDNSCPNVSNIVRDTIVNELRSDPRIAASILRLHFHDCFVNGCDASILLDNTTSFRTEKDAFGNANSARGFPVIDRMKAAVESACPRTVSCADLLTIAAQQSVTLAGGPSWRVPLGRRDSLQAFLDLANANLPAPFFTLPQLKDSFRNVGLNRSSDLVALSGGHTFGKNQCRFIMDRLYNFSNTGLPDPTLNTTYLQTLRGLCPLNGNLSALVDFDLRTPTIFDNKYYVNLEEQKGLIQSDQELFSSPNATDTIPLVRSFANSTQTFFNAFVEAMDRMGNITPLTGTQGQIRLNCRVVNSNS
peptide: CNGYEIEWYSWVTHGMY
modifications: C-terminal amide (NH2); Cys 1 disulfide-linked through SPDP to peroxidase; activated with SPDP (N-succinimidyl-3-(2-pyridylthio)propionate), disulfide-linked to the peptide
notes: also called Conjugate ID NO:1; Conjuguate ID NO 1
B1 was tested, and the “fold of half-maximum binding concentration against the peptide” value [1] was 50 fold and the EC50 [2] was 100 nM.

B2: human recombinant VEGF (R&D Systems) (ligand, UniProt P15692-4 27-191, looked up)
chain: APMAEGGGQNHHEVVKFMDVYQRSYCHPIETLVDIFQEYPDEIEYIFKPSCVPLMRCGGCCNDEGLECVPTEESNITMQIMRIKPHQGQHIGEMSFLQHNKCECRPKKDRARQENPCGPCSERRKHLFVQDPQTCKCSCKNTDSRCKARQLELNERTCRCDKPRR
notes: also called vascular endothelial factor
B2 gave an IC50 [3] of 5 nM.

B3: phage clone V40 (control peptide insert encoded by ONV40, SEQ ID NO: 11) (other, bacteriophage M13)
chain: FVGGWLVPEDERLYPEAETVESCLAKPHTENSFTNVWKDDKTLDRYANYEGCLWNATGVVVCTGDETQCYGTWVPIGLAIPENEGGGSEGGGSEGGGSEGGGTKPPEYGDTPIPGYTYINPLDGTYPPGTEQNPANPNPSLEESQPLNTFMFQNNRFRNRQGALTVYTGTVTQGTDPVKTYYQYTPVSSKAMYDAYWNGKFRDCAFHSGFNEDPFVCEYQGQSSDLPQPPVNAGGGSGGGSGGGSEGGGSEGGGSEGGGSEGGGSGGGSGSGDFDYEKMANANKGAMTENADENALQSDAKGKLDSVATDYGAAIDGFIGDVSGLANGNGATGDFAGSNSQMAQVGDGDNSPLMNNFRQYLPSLPQSVECRPFVFSAGKPYEFSIDCDKINLFRGVFAFLLYVATFMYVFSTFANILRNKES
notes: Clone label V40 tied to oligonucleotide ONV40 by its name only
In the case of B3, the “ABSORBANCE, A 405” value [4] is reported as 0.025 A405.

B4: phage clone V5.10 (control peptide insert encoded by ONV5.10, SEQ ID NO: 10) (other, bacteriophage M13)
chain: PEPEVRLSPPGHIQSLAETVESCLAKPHTENSFTNVWKDDKTLDRYANYEGCLWNATGVVVCTGDETQCYGTWVPIGLAIPENEGGGSEGGGSEGGGSEGGGTKPPEYGDTPIPGYTYINPLDGTYPPGTEQNPANPNPSLEESQPLNTFMFQNNRFRNRQGALTVYTGTVTQGTDPVKTYYQYTPVSSKAMYDAYWNGKFRDCAFHSGFNEDPFVCEYQGQSSDLPQPPVNAGGGSGGGSGGGSEGGGSEGGGSEGGGSEGGGSGGGSGSGDFDYEKMANANKGAMTENADENALQSDAKGKLDSVATDYGAAIDGFIGDVSGLANGNGATGDFAGSNSQMAQVGDGDNSPLMNNFRQYLPSLPQSVECRPFVFSAGKPYEFSIDCDKINLFRGVFAFLLYVATFMYVFSTFANILRNKES
notes: Clone label V5.10 tied to oligonucleotide ONV5.10 by its name only
In the case of B4, the “ABSORBANCE, A 405” value [4] is reported as 0.039 A405.
